# Patent publication US20120237528A1 (Janssen / Centocor, published 2012)
# Substitutions are numbered along the chain they refer to.
# B1: M1583 (antibody, V domains shown)
# VH: EVQLVQSGAEVKKPGESLRISCKGSGYTFGPYWIEWVRQMPGKGLEWMGDIIPGSGWTNYSPSFQGHVTISADKSISTAYLQWSSLKASDTAMYYCARSGYYGNSGFAYWGQGTLVTVSS
# VL: DIVMTQTPLSLPVTPGEPASISCKSSQSLLSSGNQKNYLTWYLQKPGQSPQLLIYWASTRESGVPDRFSGSGSGTDFTLKISRVEAEDVGVYYCQNDYTYPLTFGQGTKLEIK
# notes: complete MAb; FR4 is its own entry; also called H177/L3
# B2: M1602 (antibody, V domains shown)
# VH: B1 VH with G30D, P31A, Y32H, I52L, W57F, N59D
# VL: B1 VL
# notes: complete MAb; FR4 is its own entry; also called H106/L3
# B3: M1643 (antibody, V domains shown)
# VH: B1 VH with G30I, P31T, I52L, W57S
# VL: B1 VL with S31Y, S32V, G33Y, N34G, Y98F, T99S, Y100W
# notes: complete MAb; FR4 is its own entry; also called H22/L162
# B4: M1653 (antibody, V domains shown)
# VH: B1 VH with G30A, I52L, S55T, W57F, N59T
# VL: B1 VL with S31Y, S32T, G33S, Y98D, T99Y, Y100W
# notes: complete MAb; FR4 is its own entry; also called H171/L283
# B5: M1604 (antibody, V domains shown)
# VH: B1 VH with G30A, I52L, S55T, W57Y, N59W
# VL: B1 VL
# notes: complete MAb; FR4 is its own entry; also called H138/L3
# B6: M1589 (antibody, V domains shown)
# VH: B1 VH with Y32H, I52L, S55T, W57Y
# VL: B1 VL
# notes: complete MAb; FR4 is its own entry; also called H187/L3
# B7: M1597 (antibody, V domains shown)
# VH: B1 VH with G30S, P31S, I52L, S55T, W57A, N59H
# VL: B1 VL
# notes: complete MAb; FR4 is its own entry; also called H134/L3
# B8: M1645 (antibody, V domains shown)
# VH: B1 VH with G30I, P31T, I52L, W57S
# VL: B1 VL with S31Y, S32T, G33S, Y98D, T99Y, Y100W
# notes: complete MAb; FR4 is its own entry; also called H22/L283
# B9: M1649 (antibody, V domains shown)
# VH: B1 VH with G30A, I52L, S55T, W57F, N59T
# VL: B1 VL with S31F, G33A, K36R, E61D, Y98D
# notes: complete MAb; FR4 is its own entry; also called H171/L335
# B10: M1613 (antibody, V domains shown)
# VH: B1 VH with G30S, P31S, Y32H, I52L, W57F, N59H, Q82K
# VL: B1 VL
# notes: complete MAb; FR4 is its own entry; also called H136/L3
# B11: M1606 (antibody, V domains shown)
# VH: B1 VH with G30I, Y32H, I52L
# VL: B1 VL
# notes: complete MAb; FR4 is its own entry; also called H181/L3
# B12: M1646 (antibody, V domains shown)
# VH: B1 VH with G30A, I52L, S55T, W57F, N59T
# VL: B1 VL with S31W, S32F, G33V, W56H, Y98D, T99S
# notes: complete MAb; FR4 is its own entry; also called H171/L138
# B13: M1587 (antibody, V domains shown)
# VH: B1 VH with G30I, I52L, W57F, N59T
# VL: B1 VL
# B14: M1638 (antibody, V domains shown)
# VH: B1 VH with G30I, P31T, I52L, W57S
# VL: B1 VL with S31W, S32F, G33V, W56H, Y98D, T99S
# notes: complete MAb; FR4 is its own entry; also called H22/L138
# B15: M1594 (antibody, V domains shown)
# VH: B1 VH with G30P, I52L, S55T, W57Y, N59V
# VL: B1 VL
# notes: complete MAb; FR4 is its own entry; also called H158/L3
# B16: M1652 (antibody, V domains shown)
# VH: B1 VH with G30A, I52L, S55T, W57F, N59T
# VL: B1 VL with S31F, S32R, G33P, N34T, Y98D, T99S
# notes: complete MAb; FR4 is its own entry; also called H171/L225
# B17: M1644 (antibody, V domains shown)
# VH: B1 VH with G30I, P31T, I52L, W57S
# VL: B1 VL with S31F, S32R, G33P, N34T, Y98D, T99S
# notes: complete MAb; FR4 is its own entry; also called H22/L225
# B18: M1588 (antibody, V domains shown)
# VH: B1 VH with Y32F, I52L, W57Y
# VL: B1 VL
# notes: complete MAb; FR4 is its own entry; also called H179/L3
# B19: M1639 (antibody, V domains shown)
# VH: B1 VH with G30I, P31T, I52L, W57S
# VL: B1 VL with S31Y, K36R, E61S, Y98D, L102M
# notes: complete MAb; FR4 is its own entry; also called H22/L320
# B20: M1640 (antibody, V domains shown)
# VH: B1 VH with G30I, P31T, I52L, W57S
# VL: B1 VL with S31P, G33W, K36S, Y98F
# notes: complete MAb; FR4 is its own entry; also called H22/L327
# B21: M1601 (antibody, V domains shown)
# VH: B1 VH with I52L, S55T, W57Y, N59V
# VL: B1 VL
# notes: complete MAb; FR4 is its own entry; also called H105/L3
# B22: M1596 (antibody, V domains shown)
# VH: B1 VH with G30T, I52L, W57H, N59T
# VL: B1 VL
# notes: complete MAb; FR4 is its own entry; also called H185/L3
# B23: M1647 (antibody, V domains shown)
# VH: B1 VH with G30A, I52L, S55T, W57F, N59T
# VL: B1 VL with S31Y, K36R, E61S, Y98D, L102M
# notes: complete MAb; FR4 is its own entry; also called H171/L320
# B24: M1599 (antibody, V domains shown)
# VH: B1 VH with I52L, S55T, W57Y, N59L
# VL: B1 VL
# notes: complete MAb; FR4 is its own entry; also called H130/L3
# B25: M1586 (antibody, V domains shown)
# VH: B1 VH with G30P, P31T, S55T
# VL: B1 VL
# notes: complete MAb; FR4 is its own entry; also called H164/L3
# B26: M1605 (antibody, V domains shown)
# VH: B1 VH with P31T, I52L, S55T, W57H, N59T
# VL: B1 VL
# notes: complete MAb; FR4 is its own entry; also called H168/L3
# B27: M1585 (antibody, V domains shown)
# VH: B1 VH with G30S, Y32F, S55T, W57Y
# VL: B1 VL
# notes: complete MAb; FR4 is its own entry; also called H139/L3
# B28: M1642 (antibody, V domains shown)
# VH: B1 VH with G30I, P31T, I52L, W57S
# VL: B1 VL with S31T, G33Y, K36R, Y98L
# notes: complete MAb; FR4 is its own entry; also called H22/L369
# B29: M1590 (antibody, V domains shown)
# VH: B1 VH with G30L, S55T, W57F
# VL: B1 VL
# notes: complete MAb; FR4 is its own entry; also called H117/L3
# B30: M1651 (antibody, V domains shown)
# VH: B1 VH with G30A, I52L, S55T, W57F, N59T
# VL: B1 VL with S31Y, S32V, G33Y, N34G, Y98F, T99S, Y100W
# notes: complete MAb; FR4 is its own entry; also called H171/L162
# B31: M1595 (antibody, V domains shown)
# VH: B1 VH with G30Y, I52L, S55T, W57F
# VL: B1 VL
# notes: complete MAb; FR4 is its own entry; also called H160/L3
# B32: M1610 (antibody, V domains shown)
# VH: B1 VH with G30A, S55T, W57Y, N59T
# VL: B1 VL
# notes: complete MAb; FR4 is its own entry; also called H115/L3
# B33: M1598 (antibody, V domains shown)
# VH: B1 VH with G30T, I52L, S55T, W57Y, N59V
# VL: B1 VL
# notes: complete MAb; FR4 is its own entry; also called H137/L3
# B34: M1592 (antibody, V domains shown)
# VH: B1 VH with G30S, Y32H, I52L, W57Y, N59I
# VL: B1 VL
# notes: complete MAb; FR4 is its own entry; also called H165/L3
# B35: M1591 (antibody, V domains shown)
# VH: B1 VH with G30R, S55T, W57Y
# VL: B1 VL
# notes: complete MAb; FR4 is its own entry; also called H122/L3
# B36: M1641 (antibody, V domains shown)
# VH: B1 VH with G30I, P31T, I52L, W57S
# VL: B1 VL with S31F, G33A, K36R, E61D, Y98D
# notes: complete MAb; FR4 is its own entry; also called H22/L335
# Assays:
# [1] = biological target: T1, recombinant extracellular domain (ECD) of human TF, amino acid 1-219 of the mature chain, C-terminal His6-tag (human, UniProt P13726 33-251); test: Biacore
# T1 construct: expressed in a mammalian system; used for ELISA and Biacore; biotinylated by NHS-ester for the Fab ELISA; also called His6-TF-ECD1-219; HumanTF1-219
# [2] = biological target: Innovin, lyophilized recombinant human tissue factor combined with phospholipids (human, UniProt P13726 33-295, limits assumed); test: cell-based or functional assay; further: test concentration or dose not given here
Binder,Kd [1],koff [1],kon [1],"T½ Max (seconds), coagulation of human plasma [2]"
B1,0.42 nM,0.0001 s⁻¹,239000 M⁻¹ s⁻¹,189 s
B2,0.62 nM,8.2e-05 s⁻¹,132000 M⁻¹ s⁻¹,163 s
B3,0.18 nM,–,–,148 s
B4,0.16 nM,–,–,–
B5,0.14 nM,2.2e-05 s⁻¹,152000 M⁻¹ s⁻¹,165 s
B6,0.4 nM,7e-05 s⁻¹,174000 M⁻¹ s⁻¹,202 s
B7,0.8 nM,6.6e-05 s⁻¹,83400 M⁻¹ s⁻¹,157 s
B8,0.08 nM,–,–,154 s
B9,0.17 nM,–,–,–
B10,0.92 nM,7e-05 s⁻¹,75700 M⁻¹ s⁻¹,165 s
B11,0.18 nM,2.9e-05 s⁻¹,166000 M⁻¹ s⁻¹,157 s
B12,0.19 nM,–,–,–
B13,–,–,–,202 s
B14,0.2 nM,–,–,163 s
B15,0.35 nM,4.3e-05 s⁻¹,124000 M⁻¹ s⁻¹,165 s
B16,0.11 nM,–,–,–
B17,0.12 nM,–,–,150 s
B18,0.35 nM,6e-05 s⁻¹,173000 M⁻¹ s⁻¹,207 s

Binder,Kd [1],koff [1],kon [1],"T½ Max (seconds), coagulation of human plasma [2]"
B19,0.08 nM,–,–,167 s
B20,0.76 nM,–,–,168 s
B21,0.33 nM,4.6e-05 s⁻¹,137000 M⁻¹ s⁻¹,180 s
B22,0.33 nM,4.3e-05 s⁻¹,131000 M⁻¹ s⁻¹,163 s
B23,0.1 nM,–,–,160 s
B24,0.39 nM,5.3e-05 s⁻¹,138000 M⁻¹ s⁻¹,151 s
B25,0.78 nM,0.000143 s⁻¹,184000 M⁻¹ s⁻¹,200 s
B26,0.64 nM,8.6e-05 s⁻¹,135000 M⁻¹ s⁻¹,160 s
B27,0.49 nM,9e-05 s⁻¹,185000 M⁻¹ s⁻¹,205 s
B28,0.95 nM,–,–,166 s
B29,0.69 nM,0.000109 s⁻¹,159000 M⁻¹ s⁻¹,180 s
B30,0.19 nM,–,–,–
B31,0.39 nM,6.8e-05 s⁻¹,176000 M⁻¹ s⁻¹,163 s
B32,0.54 nM,0.0001 s⁻¹,184000 M⁻¹ s⁻¹,164 s
B33,0.33 nM,6.3e-05 s⁻¹,192000 M⁻¹ s⁻¹,155 s
B34,0.4 nM,7.7e-05 s⁻¹,191000 M⁻¹ s⁻¹,163 s
B35,0.41 nM,5.6e-05 s⁻¹,134000 M⁻¹ s⁻¹,154 s
B36,0.12 nM,–,–,162 s
